Assay results: PMC4400361, “Oligomerization of the Polycystin-2 C-terminal Tail and Effects on Its Ca^2+-binding Properties*” (The Journal of Biological Chemistry, 2015)

Legend:
[1] = target: the molecule itself; test: SEC-MALS; Superdex 200 10/30 GL, SEC-UV/LS/RI; Ca2+-bound holo state, 20 mM CaCl2 in the buffer; 20 mM imidazole in the buffer for HPC2 Cterm; three injected amounts for HPC2 Cterm and SUPC2 Ccore
[2] = target: the molecule itself; test: SEC-MALS; Superdex 200 10/30 GL, SEC-UV/LS/RI; Ca2+-free apo state, no added CaCl2, 1 mM EDTA; 20 mM imidazole in the buffer for HPC2 Cterm; three injected amounts

B1: human polycystin-2 C-terminal construct, which includes the full-length cytoplasmic tail (HPC2 Cterm) (domain or fragment, UniProt Q13563 704-968, looked up)
chain: IRKGYHKALVKLKLKKNTVDDISESLRQGGGKLNFDELRQDLKGKGHTDAEIEAIFTKYDQDGDQELTEHEHQQMRDDLEKEREDLDLDHSSLPRPMSSRSFPRSLDDSEEDDDEDSGHSSRRRGSISSGVSYEEFQVLVRRVDRMEHSIGSIVSKIDAVIVKLEIMERAKLKRREVLGRLLDGVAEDERLGRDSEIHREQMERLVREELERWESDDAASQISHGLGTPVGLNGQPRPRSSRPSSSQSTEGMEGAGGNGSSNVHV
notes: polycystin-2 (PC2), human, residues I704-V968, numbered on full-length human PC2; Printed monomer mass 32.2 kDa; also called C-terminal cytoplasmic tail of human PC2; HPC Cterm
With B1 the “stoichiometry N” value [1] was 3 and the “stoichiometry N” value [2] was 3.
